The record followed here is the supplement of paper PMC12042874.

± gives the uncertainty stated by the source.

A short description of the data set: amyloid nucleation score (Sup35N fusion, yeast selection) (log enrichment); library NNK3; higher = more nucleation; inactive = no reads after selection. The method, boiled down:
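Peptides of 20 random codons fused to Sup35N were expressed in psi-negative yeast, induced 24 hours with 100 μM copper sulfate, then grown 7 days at 30°C on medium lacking adenine and uracil. Input and output plasmid inserts were Illumina-sequenced. Nucleation score is the DiMSum log enrichment of output over input reads, centred on the mode score of non-aggregating sequences, excluding sequences with under 100 input reads. Random libraries had three technical output replicates.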
On to WKTTMALRSVLPGGYLHFCV, for which the amyloid nucleation score result was “inactive”.
As for EDRSHVAYTFFSALAQVT, the amyloid nucleation score result was “inactive”.
As for LNCAILASHSHYTK, the amyloid nucleation score result is “inactive”.
LGYMLNGGRMQKNATNKSGA: the amyloid nucleation score result was “inactive”.
For the substance HPVKLILILIWPAFERSRCG, the amyloid nucleation score entry is “inactive”.
Substance GVLLTYSCSRQLSPDFNCFC showed an amyloid nucleation score of 1.62 ± 0.073.
For DLRSITMCWCIIPTGRCVVA, the amyloid nucleation score result was “inactive”.
Then VESYPVGLY, with 1.56 ± 0.068.
For the substance TVGSRGSTPHCTLLLVSWSL, the amyloid nucleation score result is “inactive”.
WGLGETCLKLSWPCRN: the amyloid nucleation score entry was “inactive”.
FLRKFRLTLIYVTRASWLGG: the amyloid nucleation score entry was “inactive”.
Then VFVNSYS, with “inactive”; and SLSYFLSFS, with 1.14 ± 0.085; and NGPEGSLFDLSDFCHFCLNR, with 0.955 ± 0.14.
Regarding GQRNVVSYTSNMNVPLFSFG, the amyloid nucleation score entry was “inactive”.
On to RMAYIENGVDTAACSDLYVL, for which the amyloid nucleation score entry was “inactive”.
RSYKRYSSSYLIIWGWVNMC: the amyloid nucleation score result is “inactive”.
Regarding KVWSLYLYVRSTYRL, the amyloid nucleation score result was “inactive”.
In the case of ANPLAYLQSMSGTSGNT, the amyloid nucleation score entry is “inactive”.
On to SLVMAEVITPIGLSFCSNYT, for which the amyloid nucleation score result was “inactive”.
Then QSYDL, with “inactive”; and VFFYAASD, with “inactive”.
On to RFNHMRNGFWRSIS, for which the amyloid nucleation score entry is “inactive”.
In the case of ADVLLMRDRAFRRGSWRMAR, the amyloid nucleation score result is “inactive”.
Substance CLFQIIVNTSYIGKFHTVLG had an amyloid nucleation score of 1.88 ± 0.057.
Consider VFAAKGPTMYRSARVS, for which the amyloid nucleation score entry is “inactive”.
As for VWYAYRLYQTWKITNVLIPW, the amyloid nucleation score result was “inactive”.
For the substance QFKVLYPGREGDAKCHVGAR, the amyloid nucleation score result is “inactive”.
The same measure for LACSMLCVDPIADGHNFSYS: “inactive”.
WIYRLWQGDIVPRVMTAHTA: the amyloid nucleation score was -0.735 ± 1.8.
The same measure for NVRVGILQR: “inactive”; for LASGRHQASVHCRVNSMMYS: “inactive”; for SLVGRSCLRY: “inactive”.
Consider ILLVWNSMLYYTLDTCVNCC, for which the amyloid nucleation score entry is “inactive”.
Then GFDMRVGDRMYRDYGMMVGA, with “inactive”.
Then KALSCSRSFAVKVVYTQDP, with “inactive”; and NILPRRGEQAV, with “inactive”.
Take CVEAEDNFVLLKEGHAAWDV: the amyloid nucleation score entry was “inactive”.
The same measure for LFGTRIYGLFLCSLNLCRRV: “inactive”; for FLRKGYFNSTSFTDALGGNL: -1.26 ± 1.8.
Turning to FSLVMDCI, the amyloid nucleation score result was “inactive”.
RFSTQAENGVSIIFNLVCFN had an amyloid nucleation score of 2.8 ± 0.082.
The same measure for VRSTTQHVHLICCNEYFRH: 2.82 ± 0.052; for ILYGKVTKKRGSKALSVRVM: “inactive”.
As for PTSFQYRCVSI, the amyloid nucleation score entry was “inactive”.
As to CTVLKYFLRYRRSHDL, the amyloid nucleation score result was “inactive”.
Regarding TAGNWWNVCVNTFNRWRRLL, the amyloid nucleation score entry is “inactive”.
On to DQIYSECLV, for which the amyloid nucleation score result is “inactive”.
Take IIYFRVISIGYSWGIVRDRF: the amyloid nucleation score result is “inactive”.
The substance TNYICCSFRFPWNHSYV returned an amyloid nucleation score of 3.4 ± 0.061.
In turn, VSIFCCQPSSVIAVDISDHS came in with an amyloid nucleation score of 2.93 ± 0.068.
The same measure for WHWRGTICVLCAGYRWIAHS: “inactive”.
In the case of NTGLAFTSYMTMDLLCISGA, the amyloid nucleation score entry was “inactive”.
The same measure for QTLRGCSNCRTRVGC: “inactive”; for NMRRRYC: “inactive”; for RYSVARIRCTTGNVDVYV: -0.281 ± 1.2.
For RLVPFTWGHIPG, the amyloid nucleation score result was “inactive”.
Take NRVPQWRRRQVGGD: the amyloid nucleation score result is “inactive”.
As to CFETCLSAVGHSIQAQKLSG, the amyloid nucleation score worked out at 0.193 ± 0.29.
For SYCGSSASSASTLEIRYTLA, the amyloid nucleation score is 0.875 ± 0.12.
Then YDCCMLHWIVFGGIVDGMCL, with “inactive”; and HYQHVFLAFNSVLQSPILRE, with “inactive”.
As to THFYWADAVVMPAYRVIRRF, the amyloid nucleation score result is “inactive”.
Then DSVMVYIRFIAMSSPQKG, with “inactive”; and LFLDVSIYVCPEGILRKS, with 2.65 ± 0.084; and LPNSNTGKKCYGMNHSKENC, with “inactive”.
Then HFHFLGCDSLGIVVGEWSDH, with 0.94 ± 0.18; and EDCRSR, with “inactive”; and VCSCAHGHTGSEESRSVGSA, with “inactive”.
Then ATYNEMYVVPSRASPKGDWD, with “inactive”; and GSFITSNA, with “inactive”; and IVRSF, with “inactive”.
With RMIASAFFADCEKYVVNNLE, the amyloid nucleation score turned out to be 0.028 ± 0.43.
The same measure for TYLNTVRLKSGMMMNMKSTR: “inactive”; for FCRQCNIVLFDQSVSL: 1.87 ± 0.11.
WFNQHTECHGRSVHLAAHNV returned an amyloid nucleation score of -0.14 ± 1.
With IVFWRSFHKNA, the amyloid nucleation score entry is “inactive”.
As for SYYLITDS, the amyloid nucleation score result was “inactive”.
With RVFRLCIRFSHA, the amyloid nucleation score stood at 0.391 ± 0.23.
Substance NALRFNLWMLNTVKVEYRSD gave an amyloid nucleation score of 2.15 ± 0.067.
As to KALGAEYNTHGTVSGCSLCK, the amyloid nucleation score entry is “inactive”.
Regarding MNNVN, the amyloid nucleation score result is “inactive”.
Consider MSFRRIFSSLIYSLRRSSAN, for which the amyloid nucleation score result is “inactive”.
As for YCRCLCMLYG, the amyloid nucleation score result is “inactive”.
In the case of NLLVFDACHGVIRYGKTRVA, the amyloid nucleation score result is “inactive”.
Consider QQHRSALRVQVHRVCGNSVI, for which the amyloid nucleation score result is “inactive”.
As to MVSDIGWYLLQFTERRSCFY, the amyloid nucleation score result is “inactive”.
The same measure for LKNVTDKMHTYLRLEGSRHV: “inactive”.
Turning to FNFNLKFKTFGKMYFTGPES, the amyloid nucleation score stood at 0.628 ± 0.25.
On to SFTSC, for which the amyloid nucleation score result was “inactive”.
Regarding MIVSSYFYLVRIQYEFHAGW, the amyloid nucleation score is 0.172 ± 0.43.
NSVHREECFLITF: the amyloid nucleation score result is “inactive”.
Then SIKYSGFMWTWVNLLDPTVP, with “inactive”; and ILINSRFMRFVFRAGHRV, with “inactive”.
With WYIVTNR, the amyloid nucleation score result is “inactive”.
VNLITCKQVSFRCQVSGILC: the amyloid nucleation score is 2.19 ± 0.092.
Regarding FFSLLT, the amyloid nucleation score result is “inactive”.
